Measurements reported in patent US11278600B2, “Human alpha-galactosidase variants” (Codexis, Inc., priority 2014, dated 2022).

What was measured:
Assay type in all cases: biochemical
[1] = HTP-analysis of supernatants pretreated with base (MUGal hydrolysis); conditions: activity of the variant/activity of Rd3BB (SEQ ID NO: 13); challenge at pH 9.7
In short: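 GLA variants were secreted by transformed INVSc1 yeast grown 66-84 h at 30° C. Supernatants were exposed to neutral-to-basic buffers (pH 7.0-9.7) at 37° C for 1-18 h, then assayed with MUGal in acidic citrate/McIlvaine buffer, with fluorescence read after quenching.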

[2] = HTP-analysis of supernatants pretreated with acid (MUGal hydrolysis); conditions: activity of the variant/activity of Rd3BB (SEQ ID NO: 13); challenge at pH 3.7
In short: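 Fluorescence of MUGal hydrolysis (Ex. 355 nm, Em. 448 nm) is read after sodium carbonate quench. The enzyme source is INVSc1 yeast culture supernatant, first exposed to pH 3.3-4.3 McIlvaine buffer at 37° C. for 1-3 h, then reacted at pH 4.8 for 30-180 minutes.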

[3] = HTP-analysis of yeast culture supernatants, no challenge (MUGal hydrolysis); conditions: activity of the variant/activity of Rd3BB (SEQ ID NO: 13)
In short: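 GLA variants were expressed in INVSc1 yeast grown in SD-Ura broth with glucose at 30° C., and culture supernatants were collected after 66-84 h. Supernatant was mixed with McIlvaine buffer pH 4.8 and MUGal (2 mM stock) in 50 mM citrate, 200 mM KCl, pH 4.6, incubated at 37° C. for 30-180 minutes, then quenched with sodium carbonate.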

B1: 530 (protein)
chain: LDNGLARTPTMGWLHWERFMCNLDCQEEPDSCISEKLFMEMAERMVSEGWKDAGYEYLCIDDCWMAPQRDSEGRLQADPQRFPHGIRQLANHVHSKGLKLGIYADVGNKTCAGFPGSFGYYDIDAQTFADWGVDLLKFDGCYCDSLENLADGYKHMSLALNRTGRSIVYSCEWPLYMWPFQEPNYTEIRQYCNHWRNFADIDDSWASIKSILDWTSRNQERIVDVAGPGGWNDPDMLVIGNFGLSWDQQVTQMALWAIMAAPLFMSNDLRHISPQAKALLQDKDVIAINQDPLGKQGYQLRKGDNFEVWERPLSGDAWAVAIINRQEIGGPRSYTIPVASLGKGVACNPACFITQLLPVKRQLGFYNWTSRLKSHINPTGTVLLQLENTMQMSLKDLL
modifications: Synthetic Polypeptide sequence of Variant No. 530 of mature Human GLA
Relative Activity of GLA Variants After Challenge at pH 9.7 [1]: ++ (++ = >5 to 10 relative activity over Rd3BB (SEQ ID NO: 13)) | Relative Activity of GLA Variants After Challenge at pH 3.7 [2]: + (+ = 1.5 to 5 relative activity over Rd3BB (SEQ ID NO: 13)) | Relative Activity of GLA Variants After No Challenge (NC) [3]: + (+ = 1.5 to 5 relative activity over Rd3BB (SEQ ID NO: 13))

B2: 534 (protein)
chain: LDNGLARTPTMGWLHWERFMCNLDCQEEPDSCISEKLFMEMAERMVSEGWKDAGYEYLCIDDCWMAPQRDSEGRLQADPQRFPHGIRQLANHVHSKGLKLGIYADVGNKTCAGFPGSFGYYDIDAQTFADWGVDLLKFDGCYCDSLENLADGYKHMSLALNRTGRSIVYSCEWPLYMWPFQRPNYTEIRQYCNHWRNFADIDDSWASIKSILDWTSRNQERIVDVAGPGGWNDPDMLVIGNFGLSWDQQVTQMALWAIMAAPLFMSNDLRHISPQAKALLQDKDVIAINQDPLGKQGYQLRKGDNFEVWERPLSGDAWAVAIINRQEIGGPRSYTIPVASLGKGVACNPACFITQLLPVKRQLGFYNWTSRLKSHINPTGTVLLQLENTMQMSLKDLL
modifications: Synthetic Polypeptide sequence of Variant No. 534 of mature Human GLA
Relative Activity of GLA Variants After Challenge at pH 9.7 [1]: ++ (++ = >5 to 10 relative activity over Rd3BB (SEQ ID NO: 13)) | Relative Activity of GLA Variants After Challenge at pH 3.7 [2]: + (+ = 1.5 to 5 relative activity over Rd3BB (SEQ ID NO: 13)) | Relative Activity of GLA Variants After No Challenge (NC) [3]: + (+ = 1.5 to 5 relative activity over Rd3BB (SEQ ID NO: 13))

B3: 537 (protein)
chain: LDNGLARTPTMGWLHWERFMCNLDCQEEPDSCISEKLFMEMAERMVSEGWKDAGYEYLCIDDCWMAPQRDSEGRLQADPQRFPHGIRQLANHVHSKGLKLGIYADVGNKTCAGFPGSFGYYDIDAQTFADWGVDLLKFDGCYCDSLENLADGYKHMSLALNRTGRSIVYSCEWPLYMWPFQYPNYTEIRQYCNHWRNFADIDDSWASIKSILDWTSRNQERIVDVAGPGGWNDPDMLVIGNFGLSWDQQVTQMALWAIMAAPLFMSNDLRHISPQAKALLQDKDVIAINQDPLGKQGYQLRKGDNFEVWERPLSGDAWAVAIINRQEIGGPRSYTIPVASLGKGVACNPACFITQLLPVKRQLGFYNWTSRLKSHINPTGTVLLQLENTMQMSLKDLL
modifications: Synthetic Polypeptide sequence of Variant No. 537 of mature Human GLA
Relative Activity of GLA Variants After Challenge at pH 9.7 [1]: ++ (++ = >5 to 10 relative activity over Rd3BB (SEQ ID NO: 13)) | Relative Activity of GLA Variants After Challenge at pH 3.7 [2]: + (+ = 1.5 to 5 relative activity over Rd3BB (SEQ ID NO: 13)) | Relative Activity of GLA Variants After No Challenge (NC) [3]: + (+ = 1.5 to 5 relative activity over Rd3BB (SEQ ID NO: 13))

B4: 531 (protein)
chain: LDNGLARTPTMGWLHWERFMCNLDCQEEPDSCISEKLFMEMAERMVSEGWKDAGYEYLCIDDCWMAPQRDSEGRLQADPQRFPHGIRQLANHVHSKGLKLGIYADVGNKTCAGFPGSFGYYDIDAQTFADWGVDLLKFDGCYCDSLENLADGYKHMSLALNRTGRSIVYSCEWPLYMWPFQHPNYTEIRQYCNHWRNFADIDDSWASIKSILDWTSRNQERIVDVAGPGGWNDPDMLVIGNFGLSWDQQVTQMALWAIMAAPLFMSNDLRHISPQAKALLQDKDVIAINQDPLGKQGYQLRKGDNFEVWERPLSGDAWAVAIINRQEIGGPRSYTIPVASLGKGVACNPACFITQLLPVKRQLGFYNWTSRLKSHINPTGTVLLQLENTMQMSLKDLL
modifications: Synthetic Polypeptide sequence of Variant No. 531 of mature Human GLA
Relative Activity of GLA Variants After Challenge at pH 9.7 [1]: ++ (++ = >5 to 10 relative activity over Rd3BB (SEQ ID NO: 13)) | Relative Activity of GLA Variants After Challenge at pH 3.7 [2]: + (+ = 1.5 to 5 relative activity over Rd3BB (SEQ ID NO: 13)) | Relative Activity of GLA Variants After No Challenge (NC) [3]: + (+ = 1.5 to 5 relative activity over Rd3BB (SEQ ID NO: 13))

B5: 532 (protein)
chain: LDNGLARTPTMGWLHWERFMCNLDCQEEPDSCISEKLFMEMAERMVSEGWKDAGYEYLCIDDCWMAPQRDSEGRLQADPQRFPHGIRQLANHVHSKGLKLGIYADVGNKTCAGFPGSFGYYDIDAQTFADWGVDLLKFDGCYCDSLENLADGYKHMSLALNRTGRSIVYSCEWPLYMWPFQMPNYTEIRQYCNHWRNFADIDDSWASIKSILDWTSRNQERIVDVAGPGGWNDPDMLVIGNFGLSWDQQVTQMALWAIMAAPLFMSNDLRHISPQAKALLQDKDVIAINQDPLGKQGYQLRKGDNFEVWERPLSGDAWAVAIINRQEIGGPRSYTIPVASLGKGVACNPACFITQLLPVKRQLGFYNWTSRLKSHINPTGTVLLQLENTMQMSLKDLL
modifications: Synthetic Polypeptide sequence of Variant No. 532 of mature Human GLA
Relative Activity of GLA Variants After Challenge at pH 9.7 [1]: ++ (++ = >5 to 10 relative activity over Rd3BB (SEQ ID NO: 13)) | Relative Activity of GLA Variants After Challenge at pH 3.7 [2]: + (+ = 1.5 to 5 relative activity over Rd3BB (SEQ ID NO: 13)) | Relative Activity of GLA Variants After No Challenge (NC) [3]: + (+ = 1.5 to 5 relative activity over Rd3BB (SEQ ID NO: 13))

B6: 533 (protein)
chain: LDNGLARTPTMGWLHWERFMCNLDCQEEPDSCISEKLFMEMAERMVSEGWKDAGYEYLCIDDCWMAPQRDSEGRLQADPQRFPHGIRQLANHVHSKGLKLGIYADVGNKTCAGFPGSFGYYDIDAQTFADWGVDLLKFDGCYCDSLENLADGYKHMSLALNRTGRSIVYSCEWPLYMWPFQQPNYTEIRQYCNHWRNFADIDDSWASIKSILDWTSRNQERIVDVAGPGGWNDPDMLVIGNFGLSWDQQVTQMALWAIMAAPLFMSNDLRHISPQAKALLQDKDVIAINQDPLGKQGYQLRKGDNFEVWERPLSGDAWAVAIINRQEIGGPRSYTIPVASLGKGVACNPACFITQLLPVKRQLGFYNWTSRLKSHINPTGTVLLQLENTMQMSLKDLL
modifications: Synthetic Polypeptide sequence of Variant No. 533 of mature Human GLA
Relative Activity of GLA Variants After Challenge at pH 9.7 [1]: ++ (++ = >5 to 10 relative activity over Rd3BB (SEQ ID NO: 13)) | Relative Activity of GLA Variants After Challenge at pH 3.7 [2]: + (+ = 1.5 to 5 relative activity over Rd3BB (SEQ ID NO: 13)) | Relative Activity of GLA Variants After No Challenge (NC) [3]: + (+ = 1.5 to 5 relative activity over Rd3BB (SEQ ID NO: 13))

B7: 535 (protein)
chain: LDNGLARTPTMGWLHWERFMCNLDCQEEPDSCISEKLFMEMAERMVSEGWKDAGYEYLCIDDCWMAPQRDSEGRLQADPQRFPHGIRQLANHVHSKGLKLGIYADVGNKTCAGFPGSFGYYDIDAQTFADWGVDLLKFDGCYCDSLENLADGYKHMSLALNRTGRSIVYSCEWPLYMWPFQTPNYTEIRQYCNHWRNFADIDDSWASIKSILDWTSRNQERIVDVAGPGGWNDPDMLVIGNFGLSWDQQVTQMALWAIMAAPLFMSNDLRHISPQAKALLQDKDVIAINQDPLGKQGYQLRKGDNFEVWERPLSGDAWAVAIINRQEIGGPRSYTIPVASLGKGVACNPACFITQLLPVKRQLGFYNWTSRLKSHINPTGTVLLQLENTMQMSLKDLL
modifications: Synthetic Polypeptide sequence of Variant No. 535 of mature Human GLA
Relative Activity of GLA Variants After Challenge at pH 9.7 [1]: ++ (++ = >5 to 10 relative activity over Rd3BB (SEQ ID NO: 13)) | Relative Activity of GLA Variants After Challenge at pH 3.7 [2]: + (+ = 1.5 to 5 relative activity over Rd3BB (SEQ ID NO: 13)) | Relative Activity of GLA Variants After No Challenge (NC) [3]: + (+ = 1.5 to 5 relative activity over Rd3BB (SEQ ID NO: 13))

B8: 536 (protein)
chain: LDNGLARTPTMGWLHWERFMCNLDCQEEPDSCISEKLFMEMAERMVSEGWKDAGYEYLCIDDCWMAPQRDSEGRLQADPQRFPHGIRQLANHVHSKGLKLGIYADVGNKTCAGFPGSFGYYDIDAQTFADWGVDLLKFDGCYCDSLENLADGYKHMSLALNRTGRSIVYSCEWPLYMWPFQVPNYTEIRQYCNHWRNFADIDDSWASIKSILDWTSRNQERIVDVAGPGGWNDPDMLVIGNFGLSWDQQVTQMALWAIMAAPLFMSNDLRHISPQAKALLQDKDVIAINQDPLGKQGYQLRKGDNFEVWERPLSGDAWAVAIINRQEIGGPRSYTIPVASLGKGVACNPACFITQLLPVKRQLGFYNWTSRLKSHINPTGTVLLQLENTMQMSLKDLL
modifications: Synthetic Polypeptide sequence of Variant No. 536 of mature Human GLA
Relative Activity of GLA Variants After Challenge at pH 9.7 [1]: ++ (++ = >5 to 10 relative activity over Rd3BB (SEQ ID NO: 13)) | Relative Activity of GLA Variants After Challenge at pH 3.7 [2]: + (+ = 1.5 to 5 relative activity over Rd3BB (SEQ ID NO: 13)) | Relative Activity of GLA Variants After No Challenge (NC) [3]: + (+ = 1.5 to 5 relative activity over Rd3BB (SEQ ID NO: 13))
